Results on one molecule are retold here after patent US20250084178A1, “ANTI-CD39 ANTIBODIES AND USE THEREOF” (ARCUS BIOSCIENCES, INC., priority 2022, published 2025).

Entries after “also recorded” stand apart in the source; their conditions may differ.

For data set [1], the system named is MC38 tumors. In words: MC38 tumor volume in C57BL/6 hCD39KI mice. In kind it is in vivo, mouse. The following applies: anti-CD39 20 mg/kg loading then 10 mg/kg BIW i.p. with oxaliplatin 5 mg/kg i.p. 1×/week; mixed-effects model. As to the method:
(§1) In one experiment, C57BL/6 hCD39KI mice were inoculated with 1 million MC38 cells on day 0. When tumors reached 80 mm^3, mice were dosed intraperitoneally (i.p.) with a loading dose of 20 mg/kg anti-CD39 or isotype control antibody (vehicle: PBS), and then subsequently with 10 mg/kg anti-CD39 or isotype control antibody 2×/week (BIW). Each group consisted of 11-12 mice. […] Oxaliplatin (OXA) treatment, 5 mg/kg i.p. (vehicle: saline), was initiated the day following the anti-CD39 or isotype control loading dose and dosed 1×/week. In a similarly designed experiment, BALB/c hCD39KI mice were inoculated with 4T1 cells on day 0 and treated OXA or anti-CD39 antibody as described for the MC38 model.
(§2) Tumor volume and body weight were measured approximately twice a week (BIW) and are shown in FIG. 10A and FIG. 10B respectively, where the points represent the mean and the errors bars the standard error of the mean (SEM) of the respective metrics from each group of mice. Significance was calculated using a mixed-effects model with multiple comparisons. […] Body weight was stable over the course of the experiment indicating anti-CD39 treatment was well tolerated (FIG. 10B).

Data set [2] is described as follows: Body weight of hCD39KI MC38 mice. In kind it is in vivo, mouse. As to conditions: over the course of the experiment; C57BL/6 hCD39KI MC38 mice. On the procedure: as §1, §2
Data set [3] deals with T1, human CD39 (Homo sapiens, UniProt P49961).
T1 sequence (P49961 1-510): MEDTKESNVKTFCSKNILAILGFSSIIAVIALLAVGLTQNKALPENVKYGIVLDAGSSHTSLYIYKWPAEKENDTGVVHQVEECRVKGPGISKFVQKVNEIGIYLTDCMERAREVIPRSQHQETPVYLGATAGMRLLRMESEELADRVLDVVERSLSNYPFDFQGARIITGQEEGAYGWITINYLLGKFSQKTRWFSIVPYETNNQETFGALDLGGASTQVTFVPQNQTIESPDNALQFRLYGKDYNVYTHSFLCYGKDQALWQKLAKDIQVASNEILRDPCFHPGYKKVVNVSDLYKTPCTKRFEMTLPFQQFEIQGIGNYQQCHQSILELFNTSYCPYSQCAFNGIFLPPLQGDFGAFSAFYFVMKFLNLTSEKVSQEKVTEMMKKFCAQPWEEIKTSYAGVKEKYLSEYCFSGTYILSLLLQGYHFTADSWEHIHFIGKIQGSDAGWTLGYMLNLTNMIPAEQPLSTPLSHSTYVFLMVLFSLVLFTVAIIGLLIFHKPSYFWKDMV
Put plainly: Enzyme histochemistry of tumors and spleens from C57BL/6 hCD39KI MC38 mice. The arrangement: species or system mouse. As to conditions: tumors and spleens treated in vivo, end of study. On the procedure:
Tumors and spleens from C57BL/6 hCD39KI MC38 mice at the end of the study were additionally analyzed for human CD39 expression by immunohistochemistry (IHC) and evidence of anti-CD39 antibody enzymatic blocking activity by enzyme histochemistry (EHC). Briefly, frozen OCT-embedded tumor or spleen samples were sectioned at 4 um thickness, mounted on positively charged microscope slides, air dried for 15 minutes, then placed in 4% paraformaldehyde (PFA) fixative for 20 min. After fixation, the slides were washed in Tris-buffered saline and IHC was performed on an automated Leica Bond Rx platform starting with blocking of endogenous peroxidases, followed by incubation with a rabbit anti-CD39 mAb (Abcam, EPR20627), and detected with an anti-rabbit HRP polymer system followed by a diaminobenzidine (DAB) brown chromogen, hematoxylin nuclear counterstain, and then dehydrated and mounted. […] Human CD39 expression was detected in both isotype treated (FIG. 11, panel A and FIG. 12, panel A, low- and high-power magnification, respectively) and anti-CD39 treated tumors (FIG. 11, panel C and […], low- and high-power magnification, respectively), localized to vascular endothelia, infiltrating immune cells, and stromal components of the tumor microenvironment. […]

Data set [4] deals with T2, CD39 enzymatic activity (Homo sapiens, UniProt P49961).
T2 construct: from tissue; host or cells: hCD39KI mice (C57BL/6 with MC38, BALB/c with 4T1): tumours, spleen, whole blood / WBCs, tumour-draining lymph nodes
T2 sequence (P49961 1-510): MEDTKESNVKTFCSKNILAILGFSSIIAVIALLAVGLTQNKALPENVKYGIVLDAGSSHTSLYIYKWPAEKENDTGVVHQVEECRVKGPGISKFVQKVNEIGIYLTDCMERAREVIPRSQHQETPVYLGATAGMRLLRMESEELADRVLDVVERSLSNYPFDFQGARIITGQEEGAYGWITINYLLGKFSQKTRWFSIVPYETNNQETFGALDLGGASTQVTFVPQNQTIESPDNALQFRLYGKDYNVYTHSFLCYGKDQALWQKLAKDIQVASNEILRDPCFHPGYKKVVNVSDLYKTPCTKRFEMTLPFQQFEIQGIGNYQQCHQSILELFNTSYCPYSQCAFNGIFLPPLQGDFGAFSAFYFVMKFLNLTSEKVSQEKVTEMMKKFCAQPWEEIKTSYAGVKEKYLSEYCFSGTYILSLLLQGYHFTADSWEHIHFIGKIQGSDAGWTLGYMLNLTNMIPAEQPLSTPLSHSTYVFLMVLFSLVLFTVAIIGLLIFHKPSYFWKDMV
Put plainly: Ex vivo intratumoral CD39 enzymatic activity (Kinase-Glo Plus). The class given is in vivo, mouse. As to conditions: MC38 and 4T1 tumor cell suspensions, 20 μM ATP. As to the method:
Intratumoral and peripheral CD39 enzymatic activity was also evaluated ex vivo. Upon study completion, tumor samples obtained after sacrificing C57BL/6 hCD39KI MC38 and BALB/c hCD39KI 4T1 mice were placed in RPMI+20% FBS+250 μg/ml collagenase D (Millipore Sigma, Cat. No. 11088858001)+100 KU/ml DNAse 1 (Millipore Sigma Cat. No. D5025-150KU) and enzymatically digested using gentleMACS™ Octo Dissociator to obtain a single cell suspension. […] The cells were then treated with 20 μM ATP and incubated for an additional 30 minutes at 37° C., 5% CO2. At the end of the incubation period, the 96-well plate was spun at 1000 rpm for 3 minutes and the supernatant was collected. 2× Kinase-Glo® Plus (Promega, Cat. No. V3771) was then added to the supernatants. ATP levels in the supernatants were then measured by detecting luminescence using Flexstation® 3 microplate reader. Data are presented as relative luminescence units (RLU).
Background: In Kinase-Glo more light means more ATP remaining.

The target of data set [5] is T2, CD39 enzymatic activity. In words: Ex vivo peripheral white blood cell CD39 enzymatic activity. In kind it is in vivo, mouse. As to conditions: white blood cells of 4T1 tumor-bearing hCD39KI mice, 20 μM ATP. The text has this:
To assay peripheral CD39 enzymatic activity, peripheral white blood cells (WBCs) were isolated from terminal blood samples of hCD39KI mice and assayed as generally described for the tumor cell suspensions. Briefly, whole blood samples were mixed with 1×Pharm Lyse red blood cell lysing solution (BD Biosciences, Cat. No. 555899). WBC pellets were then collected after washing with 1×PBS solution and stored in BamBanker cell freezing medium (Bulldog Bio, Cat. No. BB01). To perform the enzymatic inhibition assay, samples were thawed and then cells were plated at 2.5×10^4 cells per well in a 96-well plate. […] All wells were then treated with 20 μM ATP and incubated for 2 hours at room temperature. At the end of the incubation period, the 96-well plate was spun at 1000 rpm for 3 minutes and the supernatant was collected. 2× Kinase-Glo® Plus (Promega, Cat. No. V3771) was then added to the supernatants. ATP levels in the supernatants were then measured by detecting luminescence using Flexstation® 3 microplate reader. Data are presented as relative luminescence units (RLU).

Data set [6] relates to immune subpopulations in tumor draining lymph nodes. In words: Tumor draining lymph node immune subpopulation percentages. The class given is in vivo, mouse. As to conditions: single agent or in combination with oxaliplatin. On the procedure: (§3) Cell surface CD39 decreases with anti-CD39 treatment in tumor draining lymph nodes of hCD39KI mice. Tumor draining lymph nodes (TLDNs) (right inguinal lymph node) were also collected at the end of the C57BL/6 hCD39KI MC38 mouse study described above. Lymph nodes were dissociated in a 37° C. water bath in RPMI 1640 (Gibco, Cat. No. 11875119) containing of 0.6 mg/mL Collagenase P (Roche, Cat. No. 11213865001), 2.4 mg/mL Dispase II (Sigma, Cat. No. D4693), and 0.3 mg/mL DNAse I (Thermo Scientific, Cat. No. J62229 MB) for 30 minutes with gentle agitation. The dissociated lymph nodes were counted and 2×10^5 cells per well were plated in a 96-well polypropylene v-bottom plate. Cells were washed in PBS (Gibco, Cat. No. 14190-144) and resuspended in a PBS solution containing 1:25 Fc Block (BD, Cat. No. 564220) and 1:250 Near IR Fluorescent Reactive Dye (Invitrogen, Cat. No. L34976A) for 15 minutes in the dark. After the incubation, the cells were stained with an antibody cocktail (Table 20) and incubated for 30 minutes at 4° C. After the incubation, the cells were pelleted, supernatant removed, and 100 μL of fixation buffer (eBioscience, Cat. No. 00-8222-49) was added for 1 hour. […]

Data set [7] has as its target T1, human CD39. Put plainly: Tumor draining lymph node cell surface CD39. The class given is in vivo, mouse. As to conditions: tumor draining lymph nodes, hCD39KI MC38 mice. On the procedure: as §3
The nature of data set [8]: Peripheral cytokine levels in plasma (MSD). The class given is in vivo, mouse. The following applies: terminal bleed, mice bearing MC38 tumors. On the procedure:
A terminal bleed of the mice bearing MC38 tumors were collected into BD Vacutainer® Heparin Tubes (BD Biosciences, Cat. No. 367871), centrifuged at 2000×g for 15 minutes, and supernatant plasma samples were collected. Cytokine levels in the plasma samples were analyzed using MSD following manufacturer's instructions. […] Data are presented as mean±SEM with a total of 11-12 mice per treatment group (FIG. 18). Statistical analyses were performed using an ANOVA with Tukey's multiple comparison test.

B1: ch39_mIGG2A.AAG: antibody 39 variable regions on mouse IgG2a; HC SEQ ID NO: 41, LC SEQ ID NO: 42; the anti-CD39 of Example 9 (antibody)
heavy: EVQLVESGGGLVQPGRSLKLSCLASGFTFNNYGMNWIRQAPGKGLEWVASFSSSSTYISYADTVKGRFTISRENAKNTLYLQMTSLRSEDTALYYCVRHGRYGGYGGFYFDYWGQGVMVTVSSAKTTAPSVYPLAPVCGDTTGSSVTLGCLVKGYFPEPVTLTWNSGSLSSGVHTFPAVLQSDLYTLSSSVTVTSSTWPSQSITCNVAHPASSTKVDKKIEPRGPTIKPCPPCKCPAPNAAGGPSVFIFPPKIKDVLMISLSPIVTCVVVDVSEDDPDVQISWFVNNVEVHTAQTQTHREDYNSTLRVVSALPIQHQDWMSGKEFKCKVNNKDLGAPIERTISKPKGSVRAPQVYVLPPPEEEMTKKQVTLTCMVTDFMPEDIYVEWTNNGKTELNYKNTEPVLDSDGSYFMYSKLRVEKKNWVERNSYSCSVVHEGLHNHHTTKSFSRTPGK
light: DTVLTQSPALAVSPGERVSISCRASEGVKSYMHWYQQKPGQQPKLLIYKASNLASGVPARFSGSGSGTDFTLTIDPVEADDTATYFCQQSWNDPTFGAGTKLELKRADAAPTVSIFPPSSEQLTSGGASVVCFLNNFYPKDINVKWKIDGSERQNGVLNSWTDQDSKDSTYSMSSTLTLTKDEYERHNSYTCEATHKTSTSPIVKSFNRNEC
Consider B1, for which, in data set [1], the “Tumor volume: p for anti-CD39+saline vs. anti-CD39+OXA” value worked out at 0.0217 and the “Tumor volume: p for isotype+OXA vs. anti-CD39+OXA” value was 0.0372. Further, in data set [2], the Body weight entry is listed as “stable”. Moreover, the “Lead-phosphate deposition by enzyme histochemistry (CD39 enzymatic activity)” value in data set [3] is on record as “enzymatic activity has been blocked”. Moreover, the “Intratumoral CD39 enzymatic activity” value in data set [4] is on record as “inhibited”. Moreover, the “Peripheral CD39 enzymatic activity” value in data set [5] is “inhibited”. The Immune subpopulation percentages result in data set [6] is “did not result in significant changes”. In data set [6] (listed as anti-CD39), the Immune subpopulation percentages result is reported as “No significant changes”. Further, in data set [7], the “Human CD39 on the surface of immune subpopulations” value is “significant reduction; also recorded: significant decrease”. In addition, in data set [8], the Peripheral cytokine levels entry was “No elevation”.
